Experimental findings from patent US10907134B2, “Mutated genes for the catalytic protein of oplophorus luciferase and use thereof” (JNC CORPORATION, priority 2013, dated 2021) are described below.

A short description of assay [1]: Luminescence activity of ZZ-fused KAZ mutants in crude enzyme solutions. The assay is classed as biochemical. Particulars: Table 4; ZZ-fused (pCold-ZZ-P-); 1 μL crude enzyme solution, 1 mM DTT; 1 μg coelenterazine. As for the experimental part:
To express the ZZ-fused KAZ mutants in E. coli, the recombinant plasmid prepared in EXAMPLE 6 was used. Crude enzyme solutions were prepared in the same manner as EXAMPLE 4 using the E. coli BL21 strain (Novagen, Madison, Wis.) as a host cell. The resultant crude enzyme solution, 5 μL, was subjected to SDS-PAGE analysis to confirm expression of the proteins (FIG. 2). In FIG. 2, M and 1 to 18 are the same as described in FIG. 1.
DTT was added to the crude enzyme solution obtained in EXAMPLE 7 at a final concentration of 1 mM and the mixture was allowed to stand in an ice water for more than 5 hours. A luminescence reaction was started by adding 1 μL of the crude enzyme solution to 100 μL of TE containing 1 μg of coelenterazine (manufactured by JNC Corp.). The luminescence activity was determined using a luminometer (manufactured by Atto Inc.: AB2200) for 60 seconds, and the maximum intensity of luminescence (Imax) was shown as relative luminescence activity.
To express the ZZ-fused KAZ mutants in E. coli, the recombinant plasmid constructed in EXAMPLE 16 and pCold-ZZ-P-V44I-KAZ, pCold-ZZ-P-A54I-KAZ, pCold-ZZ-P-Y138I-KAZ prepared in EXAMPLE 6 were used. Crude enzyme solutions were prepared in the same manner as EXAMPLE 7, using the E. coli BL21 strain (Novagen, Madison, Wis.) as a host cell. DTT was added to the crude enzyme solutions at a final concentration of 1 mM. The mixtures were allowed to stand over 5 hours on ice, and luminescence activities were then assayed. The luminescence activities were determined by the method described in EXAMPLE 8. Also, 5 μL of the resultant crude enzyme solutions were subjected to SDS-PAGE analysis to confirm protein expression (FIG. 4). In FIG. 4, M and 1 to 9 are as follows. M: molecular weight size markers; 1: ZZ-P-KAZ; 2: ZZ-P-KAZ-V44I; 3: ZZ-P-KAZ-A54I; 4: ZZ-P-KAZ-Y138I; 5: ZZ-P-KAZ-V44I-A54I; 6: ZZ-P-KAZ-V44I-Y138I; 7: ZZ-P-KAZ-A54I-Y138I; 8: ZZ-P-KAZ-V44I-A54I-Y138I; and 9: ZZ-P-dnKAZ.

Assay [2] in a line: Luminescence activity of KAZ mutants (pCold II, E. coli) in supernatant and precipitate of crude enzyme solution. In kind it is biochemical. Particulars: Table 3, pCold II, E. coli BL21, 0.5 μg coelenterazine, 60 seconds; for Relative Luminescence Activity (Imax) Precipitate: 5 μL precipitate; for Relative Luminescence Activity (Imax) Supernatant: 5 μL supernatant. How it is done:
In order to express the KAZ mutants in E. coli, the recombinant plasmid prepared in EXAMPLE 3 was used. The E. coli BL21 strain (Novagen, Madison, Wis.) was used as a host cell. The BL21 strain carrying the recombinant plasmid was incubated in 5 mL of Luria-Bertani medium (hereinafter designated as LB medium) containing ampicillin (50 μg/mL) at 37° C. for 18 hours. This seed culture, 0.1 mL, was inoculated to 10 mL of LB medium and incubated for 3 hours, followed by cooling in an ice-water bath for 1 hour. IPTG was added to the culture medium at a final concentration of 1 mM, followed by incubation at 15° C. for further 20 hours. After completion of the incubation, 1 mL of the cultured medium was harvested by centrifugation at 10,000 rpm for 2 minutes. The thus collected E. coli cells were suspended in 0.5 mL of 30 mM Tris-HCl (pH 7.6)-10 mM EDTA (manufactured by Wako Pure Chemical Industries, Ltd.) (hereinafter designated as TE). The E. coli cells were disrupted by sonication for 3 seconds using a Branson Model 250 Sonifier (Danbury, Conn.) to give a crude enzyme solution. After 0.5 mL of the crude enzyme solution was further centrifuged at 10,000 rpm for 2 minutes to separate the supernatant from the precipitate, the precipitate was suspended in 0.5 mL of TE. Then 20 μL each of the supernatant and precipitate were analyzed by SDS-PAGE to confirm the presence or absence of soluble and insoluble proteins. The results are shown in FIG. 1, wherein M and 1 to 17 denote: M: molecular weight size markers; 1: KAZ; 2 KAZ-A4E; 3: KAZ-Q11R; 4: KAZ-Q18L; 5: KAZ-L27V; 6: KAZ-A33N; 7: KAZ-K43R; 8: KAZ-V44I; 9: KAZ-A54I; 10: KAZ-F68D; 11: KAZ-L72Q; 12: KAZ-M75K; 13: KAZ-I90V; 14: KAZ-P115E; 15: KAZ-Q124K; 16: KAZ-Y138I; 17: KAZ-N166R and 18: dnKAZ.
A luminescence reaction was started by the addition of 5 μL each of the supernatant and precipitate obtained in EXAMPLE 4 to 100 μL of TE containing 0.5 μg of coelenterazine (manufactured by JNC Corp.). The luminescence activity was measured for 60 seconds using a luminometer (manufactured by Atto Corp.: AB2200) and expressed in terms of relative luminescence activity (Imax).
To express the KAZ mutants with two amino acid substitutions and three amino acid substitutions in E. coli using a pCold II vector, the recombinant plasmid constructed in EXAMPLE 13 and pCold-V44I-KAZ, pCold-A54I-KAZ, pCold-Y138I-KAZ prepared in EXAMPLE 3 were used. The supernatant and precipitate of each crude enzyme solution were prepared in the same manner as EXAMPLE 4, using the E. coli BL21 starin (Novagen, Madison, Wis.) as a host cell. The supernatant and precipitate, 20 μL each, were subjected to SDS-PAGE analysis to confirm the presence or absence of soluble proteins and insoluble proteins. In FIG. 3, M and 1 to 9 are as follows. M: molecular weight markers; 1: dnKAZ; 2: KAZ; 3: KAZ-V44I-A54I; 4: KAZ-V44I-Y138I; 5: KAZ-A54I-Y138I; 6: KAZ-V44I-A54I-Y138I; 7: KAZ-V44I; 8: KAZ-A54I; and 9: KAZ-Y138I.
The luminescence activities of 5 μL each of the supernatant and precipitate obtained in EXAMPLE 14 were determined in the same manner as EXAMPLE 5. The luminescence activity was assayed with a luminometer (manufactured by Atto Inc.: AB2200) for 60 seconds, and the maximum intensity of luminescence (Imax) was shown as relative luminescence activity.

Assay [3] concerns CHO-K1 cells. Description: Luminescence activity of KAZ mutants expressed in animal culture cells with signal peptide of Gaussia luciferase for secretion. To be noted: Table 5, pcDNA3-GLsp- vectors, CHO-K1, 48 hours, 0.5 μg coelenterazine; for Relative Luminescence Activity (Imax) (%) Cell Extracts: 5 μL cell extracts; for Relative Luminescence Activity (Imax) (%) Culture Medium: 5 μL culture medium. The assay is classed as cell-based, Chinese hamster. How it is done:
Chinese hamster ovary cell line CHO-K1 was cultured in Ham's F-12 medium (manufactured by Wako Pure Chemical Industries, Ltd.) supplemented with 10% (v/v) fetal bovine serum (manufactured by Biowest Inc.). The CHO-K1 cells were plated in a 6-well plate in 1×10^5 cells/well/2 mL medium (n=2) and cultured in an incubator at 37° C. in 5% (v/v) CO2. After 24 hours, the purified recombinant plasmid was transfected to CHO-K1 cells using a FuGene HD transfection kit (manufactured by Promega Corp.), which was provided for subsequent experiment. Specifically, 1 μg of the recombinant plasmid pGL4.13 [Luc2/sv40], 0.1 μg of the internal standard vector and 3 μL of FuGene HD were added to 100 μL of the medium, which was allowed to stand at room temperature for 15 minutes. Subsequently, 100 μL of the DNA-FuGene complex was added to the cells in the 6 wells. After incubation for 48 hours, the culture medium was collected. On the other hand, the KAZ mutants expressed in the cells were washed 3 times with 3 mL of 1×PBS, then suspended in 1 mL of 1×PBS and disrupted on ice by ultrasonication, which was used as enzyme solutions of the cell-extracts of KAZ mutants.
A luminescence reaction was started by adding 5 μL of the culture media and cell extracts obtained in EXAMPLE 10 to 100 μL of 30 mM Tris-HCl (pH 7.6)-10 mM EDTA (manufactured by Wako Pure Chemical Industries, Ltd.) containing 0.5 μg of coelenterazine (manufactured by INC Corp.). The luminescence activity was determined using a luminometer (manufactured by Atto Inc.: AB2200) for 60 seconds, and the maximum intensity of luminescence (Imax) was defined as a percentage.
Culture media of the KAZ mutants with two amino acid substitutions and KAZ mutants with three amino acid substitutions and the enzyme solutions of the cell-extracts of KAZ mutants were prepared in the same manner as EXAMPLE 10.
In the resultant enzyme solutions and the enzyme solutions of the cell-extracts of KAZ mutants, luminescence activities were determined in the same manner as EXAMPLE 11.

B1: KAZ-Q11R: KAZ with single amino acid substitution Q11R (protein)
chain: FTLADFVGDWRQTAGYNQDQVLEQGGLSSLFQALGVSVTPIQKVVLSGENGLKADIHVIIPYEGLSGFQMGLIEMIFKVVYPVDDHHFKIILHYGTLVIDGVTPNMIDYFGRPYPGIAVFDGKQITVTGTLWNGNKIYDERLINPDGSLLFRVTINGVTGWRLCENILA
Consider B1, for which the “Relative Luminescence Activity (Imax)” value in assay [1] came out at 1.8. Moreover, in assay [2], the “Relative Luminescence Activity (Imax) Precipitate” value is listed as 0.3 and the “Relative Luminescence Activity (Imax) Supernatant” value stood at 2.0. Also, in assay [3], the “Relative Luminescence Activity (Imax) (%) Cell Extracts” value came to 0.1% and the “Relative Luminescence Activity (Imax) (%) Culture Medium” value is on record as “less than 0.01%”.

B2: KAZ-K43R: KAZ with single amino acid substitution K43R (protein)
chain: FTLADFVGDWQQTAGYNQDQVLEQGGLSSLFQALGVSVTPIQRVVLSGENGLKADIHVIIPYEGLSGFQMGLIEMIFKVVYPVDDHHFKIILHYGTLVIDGVTPNMIDYFGRPYPGIAVFDGKQITVTGTLWNGNKIYDERLINPDGSLLFRVTINGVTGWRLCENILA
In the case of B2, the “Relative Luminescence Activity (Imax)” value in assay [1] amounted to 0.6. For the same molecule, in assay [2], the “Relative Luminescence Activity (Imax) Precipitate” value was 0.2 and the “Relative Luminescence Activity (Imax) Supernatant” value was found to be 1.8. Moreover, in assay [3], the “Relative Luminescence Activity (Imax) (%) Cell Extracts” value was 0.1% and the “Relative Luminescence Activity (Imax) (%) Culture Medium” value is on record as “less than 0.01%”.

B3: KAZ-L27V: KAZ with single amino acid substitution L27V (protein)
chain: FTLADFVGDWQQTAGYNQDQVLEQGGVSSLFQALGVSVTPIQKVVLSGENGLKADIHVIIPYEGLSGFQMGLIEMIFKVVYPVDDHHFKIILHYGTLVIDGVTPNMIDYFGRPYPGIAVFDGKQITVTGTLWNGNKIYDERLINPDGSLLFRVTINGVTGWRLCENILA
As to B3, the “Relative Luminescence Activity (Imax)” value in assay [1] was determined as 0.1. For the same molecule, in assay [2], the “Relative Luminescence Activity (Imax) Precipitate” value is listed as 0.1 and the “Relative Luminescence Activity (Imax) Supernatant” value turned out to be 0.1. In assay [3], the “Relative Luminescence Activity (Imax) (%) Cell Extracts” value came to 0.02% and the “Relative Luminescence Activity (Imax) (%) Culture Medium” value is “less than 0.01%”.

B4: KAZ-Q18L: KAZ with glutamine at position 18 substituted by leucine (protein, listed as Oplophorus gracilirostris)
chain: FTLADFVGDWQQTAGYNLDQVLEQGGLSSLFQALGVSVTPIQKVVLSGENGLKADIHVIIPYEGLSGFQMGLIEMIFKVVYPVDDHHFKIILHYGTLVIDGVTPNMIDYFGRPYPGIAVFDGKQITVTGTLWNGNKIYDERLINPDGSLLFRVTINGVTGWRLCENILA
Consider B4, for which, in assay [1], the “Relative Luminescence Activity (Imax)” value was 0.3. In assay [2], the “Relative Luminescence Activity (Imax) Precipitate” value was 0.2 and the “Relative Luminescence Activity (Imax) Supernatant” value stood at 1.0. In assay [3], the “Relative Luminescence Activity (Imax) (%) Cell Extracts” value came out at 0.02% and the “Relative Luminescence Activity (Imax) (%) Culture Medium” value was “less than 0.01%”.

B5: KAZ-A33N: KAZ with single amino acid substitution A33N (protein)
chain: FTLADFVGDWQQTAGYNQDQVLEQGGLSSLFQNLGVSVTPIQKVVLSGENGLKADIHVIIPYEGLSGFQMGLIEMIFKVVYPVDDHHFKIILHYGTLVIDGVTPNMIDYFGRPYPGIAVFDGKQITVTGTLWNGNKIYDERLINPDGSLLFRVTINGVTGWRLCENILA
Regarding B5, the “Relative Luminescence Activity (Imax)” value in assay [1] was determined as 1.0. Further, in assay [2], the “Relative Luminescence Activity (Imax) Precipitate” value amounted to 0.4 and the “Relative Luminescence Activity (Imax) Supernatant” value amounted to 1.0. Also, in assay [3], the “Relative Luminescence Activity (Imax) (%) Cell Extracts” value was found to be 0.1% and the “Relative Luminescence Activity (Imax) (%) Culture Medium” value is listed as “less than 0.01%”.
